Test results published in paper PMC5778809.

Target: SELENOF’-YFP (human selenoprotein F with Sec changed to Cys, fused to enhanced yellow fluorescence protein) (human) (UniProt O60613)
Test: FRET or BRET; acceptor photobleaching in HEK293T cells co-transfected with pEYFP-N1 and pECFP-C1 constructs; YFP bleached at 515 nm, CFP read before and after; confocal microscope

Chain of UniProt O60613 (O60613 32-165): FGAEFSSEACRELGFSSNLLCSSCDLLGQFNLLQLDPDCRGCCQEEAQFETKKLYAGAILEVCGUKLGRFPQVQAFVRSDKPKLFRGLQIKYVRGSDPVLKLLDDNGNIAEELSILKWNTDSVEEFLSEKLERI

FRET energy transfer efficiency: 29.2% | estimated distance between donor and acceptor (FRET): 5.51 nm
B1: CFP-RDH11 (human retinol dehydrogenase 11 fused to cyan fluorescence protein) (enzyme)
chain: VELMFPLLLLLLPFLLYMAAPQIRKMLSSGVCTSTVQLPGKVVVVTGANTGIGKETAKELAQRGARVYLACRDVEKGELVAKEIQTTTGNQQVLVRKLDLSDTKSIRAFAKGFLAEEKHLHVLINNAGVMMCPYSKTADGFEMHIGVNHLGHFLLTHLLLEKLKESAPSRIVNVSSLAHHLGRIHFHNLQGEKFYNAGLAYCHSKLANILFTQELARRLKGSGVTTYSVHPGTVQSELVRHSSFMRWMWWLFSFFIKTPQQGAQTSLHCALTEGLEILSGNHFSDCHVAWVSAQARNETIARRLWDVSCDLLGLPID
